# Values quoted from earlier work in publication PMC9696605 (Viruses, 2022).
# B1: phospho-MBP: phosphorylated myelin basic protein (protein, UniProt P02687 1-169, looked up)
# Myelin basic protein: AAQKRPSQRSKYLASASTMDHARHGFLPRHRDTGILDSLGRFFGSDRGAPKRGSGKDGHHAARTTHYGSLPQKAQGHRPQDENPVVHFFKNIVTPRTPPPSQGKGRGLSLSRFSWGAEGQKPGFGYGGRASDYKSAHKGLKGHDAQGTLSKIFKLGGRDSRSGSPMARR
# modifications: phosphorylated
# notes: phosphorylated myelin basic protein
# Molecular target: Fyn-SH3 (Homo sapiens, UniProt P06241)
# Sequence (P06241 with tags, fused parts or gaps): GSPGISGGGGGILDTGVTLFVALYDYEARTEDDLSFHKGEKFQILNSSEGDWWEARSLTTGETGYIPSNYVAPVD
# Settings: phosphorylated MBP
molecule,measurement,value
B1,Effect of MBP phosphorylation on interaction with Fyn-SH3,phosphorylation weakens the interaction
